In the supplement of paper PMC6757056:
± gives the standard deviation of the averaged measurements.

B1: library; a variant is named by its letters at N, in order (parent)
chain: GCUGUCACCGGUGUAUUACCCUAGUGGUCGACCGGUCUGAUGAGUCUNNNNNNAGACGAAACAGC

Legend:
[1] = variants of: B1; test: FACS-Seq fitted mean relative fluorescence mCherry/BFP without ligand (log10 relative fluorescence); ligand: hypoxanthine (xanthine aptamer); higher = higher reporter protein expression; conditions: HEK293T, ligand present: no
Method in brief: (§1)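 After lentiviral transduction, HEK293T library cells bearing an mCherry ribozyme-switch reporter and an EF1α-BFP marker were enriched. They were then held for 48 h with or without ligand and sorted by mCherry/BFP into 6 bins, and each bin's genomic DNA was PCR-amplified, barcoded and MiSeq-sequenced. Fluorescence is expressed as a normalized fitted mean: the normal mean of log10(mCherry/BFP) bin counts, scaled to five spiked-in control ribozymes.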

[2] = variants of: B1; test: normalized RNA/DNA level with ligand (relative to sTRSVctl = 100) (log10 (% of sTRSVctl)); ligand: hypoxanthine (xanthine aptamer); higher = less ribozyme self-cleavage, higher mRNA level; conditions: ligand concentration (+) RNA-Seq: 5 mM, HEK293T, reporter: mCherry (pCS4076), ligand present: yes
Method in brief: (§2)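 For each 6-well well, 4 µg of library plasmid encoding mCherry-linked ribozyme switches, or eGFP-linked ones in some ligand experiments, was transfected into HEK293T. Any ligand was added 1 h before transfection, and RNA was extracted with EDTA 72 h after it, then reverse-transcribed, amplified, barcoded and sequenced. RNA level was obtained by dividing RNA reads by DNA reads, normalizing to a spiked-in non-cleaving sequence or to the top sequences, then scaling and log-transforming. The top set was 25 sequences, scaling was ×100 with log10, and ≥100 DNA reads were required.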

[3] = variants of: B1; test: normalized RNA/DNA level without ligand (relative to sTRSVctl = 100) (log10 (% of sTRSVctl)); ligand: hypoxanthine (xanthine aptamer); higher = less ribozyme self-cleavage, higher mRNA level; conditions: HEK293T, reporter: mCherry (pCS4076), ligand present: no
Method in brief: as §2

[4] = variants of: B1; test: FACS-Seq fitted mean relative fluorescence mCherry/BFP with ligand (log10 relative fluorescence); ligand: hypoxanthine (xanthine aptamer); ligand concentration (+) FACS-Seq: 5 mM; higher = higher reporter protein expression; conditions: HEK293T, ligand present: yes
Method in brief: as §1

Row | Variant | FACS-Seq fitted mean (log10) [1] | normalized RNA/DNA level with ligand (log10) [2] | normalized RNA/DNA level without ligand (log10) [3] | FACS-Seq fitted mean (log10) [4]
1 | UCUCAG | 0.173 ± 0.045 | 1.82 ± 0.061 | 1.34 ± 0.038 | 0.474 ± 0.094
2 | GCUUAG | 0.401 ± 0.077 | 1.83 ± 0.05 | 1.4 ± 0.025 | 0.791 ± 0.096
3 | GCUUAA | 0.221 ± 0.11 | 1.92 ± 0.047 | 1.79 ± 0.036 | 0.508 ± 0.0091
4 | UCUGGA | 0.147 ± 0.0055 | 1.85 ± 0.043 | 1.6 ± 0.031 | 0.462 ± 0.029
5 | UCUGGG | 0.132 ± 0.074 | 1.97 ± 0.055 | 1.8 ± 0.04 | 0.368 ± 0.054
6 | UCUGGC | 0.393 ± 0.029 | 1.94 ± 0.0059 | 1.87 ± 0.044 | 0.508 ± 0.055
7 | GCUCAA | 0.9407 ± 0.005 | 1.92 ± 0.041 | 1.71 ± 0.076 | 0.495 ± 0.11
8 | ACUAGG | 0.706 ± 0.049 | 1.8318 ± 0.00012 | 1.424 ± 0.009 | 0.657 ± 0.03
9 | ACUAGA | 0.305 ± 0.02 | 1.919 ± 0.0065 | 1.73 ± 0.032 | 0.429 ± 0.0044
10 | AGAAUG | -0.0981 ± 0.019 | 1.86 ± 0.034 | 1.42 ± 0.058 | -0.0321 ± 0.076
11 | ACUCCC | -0.354 ± 0.031 | 1.96 ± 0.06 | 1.924 ± 0.019 | -0.746 ± 0.075
12 | ACUCCG | 0.262 ± 0.039 | 1.895 ± 0.0092 | 1.44 ± 0.026 | 0.615 ± 0.02
13 | CGAAAC | 0.667 ± 0.046 | 1.92 ± 0.063 | 1.732 ± 0.0036 | 0.6 ± 0.081
14 | CGAAAU | 0.0751 ± 0.04 | 1.91 ± 0.049 | 1.73 ± 0.021 | 0.0235 ± 0.19
15 | CGAAAA | 0.531 ± 0.032 | 1.89 ± 0.062 | 1.6917 ± 0.00075 | 0.67 ± 0.045
16 | UGACAG | 0.5894 ± 0.0055 | 1.93 ± 0.043 | 1.66 ± 0.064 | 0.556 ± 0.022
17 | UGACAC | 0.161 ± 0.17 | 1.93 ± 0.03 | 1.84 ± 0.064 | 0.132 ± 0.059
18 | ACUUCG | 0.592 ± 0.03 | 1.9 ± 0.024 | 1.6 ± 0.1 | 0.766 ± 0.1
19 | AGACGU | 0.722 ± 0.019 | 1.9 ± 0.043 | 1.59 ± 0.03 | 0.696 ± 0.067
20 | AGACGA | 0.525 ± 0.066 | 1.95 ± 0.049 | 1.62 ± 0.025 | 0.546 ± 0.049
21 | AGACGG | 0.689 ± 0.072 | 1.81 ± 0.044 | 1.3085 ± 0.0012 | 0.834 ± 0.073
22 | CCUACA | 0.617 ± 0.024 | 1.975 ± 0.01 | 1.9 ± 0.015 | 0.603 ± 0.01
23 | GCUUUG | -0.186 ± 0.032 | 1.91 ± 0.048 | 1.56 ± 0.018 | 0.36 ± 0.05
24 | GCUUUC | 0.909 ± 0.14 | 1.959 ± 0.011 | 1.835 ± 0.016 | 0.723 ± 0.024

Row | Variant | FACS-Seq fitted mean (log10) [1] | normalized RNA/DNA level with ligand (log10) [2] | normalized RNA/DNA level without ligand (log10) [3] | FACS-Seq fitted mean (log10) [4]
25 | GCUUUA | 0.789 ± 0.044 | 1.8872 ± 0.00046 | 1.93 ± 0.027 | 0.795 ± 0.071
26 | ACUCAU | 0.604 ± 0.014 | 1.95 ± 0.042 | 1.84 ± 0.026 | 0.7156 ± 0.0036
27 | ACUGUG | 0.119 ± 0.026 | 1.85 ± 0.033 | 1.42 ± 0.069 | 0.0877 ± 0.23
28 | GGACUG | 0.544 ± 0.086 | 1.888 ± 0.012 | 1.58 ± 0.041 | 0.601 ± 0.1
29 | GGACGA | 0.478 ± 0.053 | 1.904 ± 0.015 | 1.64 ± 0.031 | 0.693 ± 0.025
30 | GGACGG | 0.346 ± 0.049 | 1.81 ± 0.035 | 1.42 ± 0.016 | 0.584 ± 0.054
31 | ACUGCG | 0.125 ± 0.0038 | 1.92 ± 0.03 | 1.458 ± 0.013 | 0.557 ± 0.019
32 | ACUGCA | 0.637 ± 0.031 | 1.96 ± 0.028 | 1.83 ± 0.074 | 0.478 ± 0.012
33 | UGAACU | -0.346 ± 0.014 | 1.913 ± 0.013 | 1.89 ± 0.0097 | 0.000122 ± 0.018
34 | UGAACA | 0.901 ± 0.04 | 1.955 ± 0.014 | 1.86 ± 0.027 | 0.802 ± 0.072
35 | CGAACC | 0.676 ± 0.041 | 1.94 ± 0.035 | 1.89 ± 0.02 | 0.635 ± 0.062
36 | AGACUU | 0.58 ± 0.039 | 1.946 ± 0.008 | 1.9 ± 0.021 | 0.5558 ± 0.0047
37 | AGACUC | 0.486 ± 0.012 | 1.944 ± 0.016 | 1.94 ± 0.034 | 0.646 ± 0.01
38 | UGAGAA | 0.552 ± 0.021 | 1.86 ± 0.019 | 1.74 ± 0.018 | 0.638 ± 0.083
39 | GGAAAA | -0.00225 ± 0.06 | 1.925 ± 0.018 | 1.686 ± 0.006 | 0.168 ± 0.059
40 | GGAAAG | 0.282 ± 0.038 | 1.8 ± 0.018 | 1.34 ± 0.094 | 0.711 ± 0.029
41 | GCUGCG | 0.192 ± 0.0063 | 1.92 ± 0.057 | 1.6 ± 0.023 | 0.503 ± 0.0077
42 | UGAAAC | -0.0117 ± 0.11 | 1.91 ± 0.027 | 1.81 ± 0.059 | 0.2594 ± 0.0017
43 | UGAAGA | 0.306 ± 0.01 | 1.896 ± 0.015 | 1.55 ± 0.025 | 0.576 ± 0.08
44 | UGAAGU | 0.226 ± 0.04 | 1.87 ± 0.037 | 1.555 ± 0.012 | 0.496 ± 0.012
45 | CGAAUA | 0.459 ± 0.085 | 1.9 ± 0.037 | 1.677 ± 0.0017 | 0.656 ± 0.027
46 | GCUAUU | 0.263 ± 0.011 | 1.927 ± 0.011 | 1.89 ± 0.004 | 0.412 ± 0.06
47 | GCUAUG | 0.086 ± 0.067 | 1.86 ± 0.025 | 1.36 ± 0.065 | 0.318 ± 0.022
48 | GGACAA | 0.0221 ± 0.17 | 1.89 ± 0.02 | 1.76 ± 0.028 | 0.0902 ± 0.07

Row | Variant | FACS-Seq fitted mean (log10) [1] | normalized RNA/DNA level with ligand (log10) [2] | normalized RNA/DNA level without ligand (log10) [3] | FACS-Seq fitted mean (log10) [4]
49 | GGACAC | 0.562 ± 0.091 | 1.9 ± 0.097 | 1.71 ± 0.022 | 0.59 ± 0.014
50 | CCUGAG | 0.635 ± 0.045 | 1.918 ± 0.014 | 1.653 ± 0.0099 | 0.706 ± 0.046
51 | CCUAAA | 0.725 ± 0.1 | 1.95 ± 0.035 | 1.84 ± 0.019 | 0.615 ± 0.021
52 | GCUUGA | 0.378 ± 0.011 | 1.924 ± 0.018 | 1.817 ± 0.0041 | 0.53 ± 0.017
53 | GCUUGG | -0.174 ± 0.029 | 1.83 ± 0.036 | 1.374 ± 0.0045 | 0.326 ± 0.038
54 | GGAAGG | -0.0545 ± 0.055 | 1.81 ± 0.03 | 1.29 ± 0.068 | 0.241 ± 0.04
55 | GGAAGC | 0.167 ± 0.013 | 1.77 ± 0.033 | 1.297 ± 0.0033 | 0.358 ± 0.042
56 | GGAAGA | 0.0989 ± 0.032 | 1.89 ± 0.045 | 1.45 ± 0.032 | 0.576 ± 0.039
57 | CGACAC | -0.0307 ± 0.0086 | 1.938 ± 0.0063 | 1.75 ± 0.039 | 0.154 ± 0.057
58 | ACUGAC | 0.249 ± 0.034 | 1.95 ± 0.11 | 1.835 ± 0.014 | 0.347 ± 0.1
59 | ACUGAG | 0.241 ± 0.019 | 1.818 ± 0.015 | 1.37 ± 0.04 | 0.673 ± 0.028
60 | ACUGAA | 0.038 ± 0.062 | 1.92 ± 0.079 | 1.737 ± 0.0053 | 0.0938 ± 0.16
61 | ACUGAU | 0.247 ± 0.08 | 1.92 ± 0.053 | 1.67 ± 0.026 | 0.431 ± 0.058
62 | UCUAUG | 0.305 ± 0.056 | 1.906 ± 0.008 | 1.74 ± 0.019 | 0.426 ± 0.018
63 | UCUAUC | 0.701 ± 0.082 | 2.046 ± 0.019 | 2 ± 0.023 | 0.59 ± 0.08
64 | GCUAAU | 0.665 ± 0.11 | 1.93 ± 0.052 | 1.788 ± 0.012 | 0.7639 ± 0.0062
65 | GCUAAC | 0.101 ± 0.032 | 1.93 ± 0.036 | 1.66 ± 0.036 | -0.141 ± 0.025
66 | GCUAAG | -0.184 ± 0.019 | 1.838 ± 0.0086 | 1.421 ± 0.0074 | 0.199 ± 0.03
67 | GGACCG | 0.219 ± 0.056 | 1.97 ± 0.03 | 1.79 ± 0.0033 | 0.447 ± 0.027
68 | UCUGUG | -0.545 ± 0.051 | 1.91 ± 0.052 | 1.706 ± 0.0071 | -0.796 ± 0.03
69 | AGACAA | 0.177 ± 0.019 | 1.89 ± 0.049 | 1.74 ± 0.053 | 0.0293 ± 0.022
70 | AGACAU | 0.502 ± 0.023 | 1.907 ± 0.0038 | 1.755 ± 0.0087 | 0.538 ± 0.036
71 | AGACAG | 0.418 ± 0.037 | 1.82 ± 0.053 | 1.391 ± 0.011 | 0.565 ± 0.052
